Source: paper PMC6917504 (Biochemistry, 2017)

B1: Human concentrative nucleoside transporter 3 (hCNT3, SLC28A3), wild type, purified from High Five insect cells (natural protein, UniProt Q9HAS3 1-616, looked up)
chain: MELRSTAAPRAEGYSNVGFQNEENFLENENTSGNNSIRSRAVQSREHTNTKQDEEQVTVEQDSPRNREHMEDDDEEMQQKGCLERRYDTVCGFCRKHKTTLRHIIWGILLAGYLVMVISACVLNFHRALPLFVITVAAIFFVVWDHLMAKYEHRIDEMLSPGRRLLNSHWFWLKWVIWSSLVLAVIFWLAFDTAKLGQQQLVSFGGLIMYIVLLFLFSKYPTRVYWRPVLWGIGLQFLLGLLILRTDPGFIAFDWLGRQVQTFLEYTDAGASFVFGEKYKDHFFAFKVLPIVVFFSTVMSMLYYLGLMQWIIRKVGWIMLVTTGSSPIESVVASGNIFVGQTESPLLVRPYLPYITKSELHAIMTAGFSTIAGSVLGAYISFGVPSSHLLTASVMSAPASLAAAKLFWPETEKPKITLKNAMKMESGDSGNLLEAATQGASSSISLVANIAVNLIAFLALLSFMNSALSWFGNMFDYPQLSFELICSYIFMPFSFMMGVEWQDSFMVARLIGYKTFFNEFVAYEHLSKWIHLRKEGGPKFVNGVQQYISIRSEIIATYALCGFANIGSLGIVIGGLTSMAPSRKRDIASGAVRALIAGTVACFMTACIAGILSSTP
B2: hCNT3 Y266C/F463C double cysteine mutant (natural protein, human, UniProt Q9HAS3 1-691, looked up)
chain: MELRSTAAPRAEGYSNVGFQNEENFLENENTSGNNSIRSRAVQSREHTNTKQDEEQVTVEQDSPRNREHMEDDDEEMQQKGCLERRYDTVCGFCRKHKTTLRHIIWGILLAGYLVMVISACVLNFHRALPLFVITVAAIFFVVWDHLMAKYEHRIDEMLSPGRRLLNSHWFWLKWVIWSSLVLAVIFWLAFDTAKLGQQQLVSFGGLIMYIVLLFLFSKYPTRVYWRPVLWGIGLQFLLGLLILRTDPGFIAFDWLGRQVQTFLECTDAGASFVFGEKYKDHFFAFKVLPIVVFFSTVMSMLYYLGLMQWIIRKVGWIMLVTTGSSPIESVVASGNIFVGQTESPLLVRPYLPYITKSELHAIMTAGFSTIAGSVLGAYISFGVPSSHLLTASVMSAPASLAAAKLFWPETEKPKITLKNAMKMESGDSGNLLEAATQGASSSISLVANIAVNLIAFLALLSCMNSALSWFGNMFDYPQLSFELICSYIFMPFSFMMGVEWQDSFMVARLIGYKTFFNEFVAYEHLSKWIHLRKEGGPKFVNGVQQYISIRSEIIATYALCGFANIGSLGIVIGGLTSMAPSRKRDIASGAVRALIAGTVACFMTACIAGILSSTPVDINCHHVLENAFNSTFPGNTTKVIACCQSLLSSTVAKGPGEVIPGGNHSLYSLKGCCTLLNPSTFNCNGISNTF

Key:
SEC = biological target: the molecule itself; assay: SEC
cross-linking = biological target: the molecule itself; assay: cross-linking

Protein	stoichiometry N (SEC)	stoichiometry N (cross-linking)
B1	3	
B2		3
